Consider one molecule from publication PMC5548745, “Agonist-induced dimer dissociation as a macromolecular step in G protein-coupled receptor signaling” (Nature Communications, 2017).

Assay [1] relates to SNAP-FZD6. Put plainly: SNAP-FZD6 internalization by confocal microscopy. Particulars: HEK293; WNT-5A 300 ng ml^−1, 15 min. Format: cell-based. The protocol:
SNAP-FZD6 and SNAP-β2-AR were imaged in living cells using a Zeiss LSM710 equipped with a 40×, 1.2 NA C-Apochromat objective. The cell-impermeable SNAP substrate SNAP-Surface 549 (New England Biolabs) was added (1:1000, 15 min), washed twice in BE buffer and imaged using the 561 nm laser line. SNAP-FZD6 and SNAP-β2-AR were stimulated with 300 ng ml^−1 WNT-5A and 10 µM isoproterenol, respectively, and fluorescence was monitored over time.

In assay [2] the test system is FZD6–FZD6 dimer. Put plainly: dynamic FCCS of V5-FZD6-mCherry/FZD6-GFP. It is filed as cell-based, human. The settings on record: HEK293. The protocol: HEK293 cells were grown over-night in Lab-Tek eight-well chamber-glass bottom slides (Nunc, Thermo Scientific, Langensbold, Germany) coated with matrigel. Data were acquired in 10 s intervals. Collection intervals containing abnormal fluorescence peaks (presumably resulting from aggregates or ROIs where the overall fluorescence was decaying, putatively due to membrane movements) were discarded from the overall analysis. The total included measurements time ranged from 20 to 80 s per cell. Measurements were only undertaken on cells where the fluorescence was well localized to the cell surface membrane, as judged by visual inspection in the wide-field and confocal mode. Autofluorescence, as well as fluorescence from both GFP and mCherry in the intracellular region was negligible. The number of fluorescent receptors assessed in each experiment varied from 10–1000 receptors per µm^2 in each HEK293 cell.
Dynamic FCCS measurements of WNT-dependent dissociation and re-association of FZD (Fig. 5c–e) were performed on an FCS/FCCS-equipped Zeiss 780 confocal microscope (Zeiss, Jena, Germany). The instrument details were the same as those of the Confocor 3 described above, with the exception that 561 nm excitation was used for excitation of mCherry, that GFP emission was detected from 500 to 550 nm, and that mCherry emission was detected from 600 to 690 nm. Experiments on cells were performed as described above, with each measurement point consisting of 3–6 measurements of 10 s each. […]
Assuming that M is FZD6-GFP (green) and N is FZD6-mCherry (red) and that all FZD6 form dimers, then the probability of finding a green–red FZD6 dimer is pgr=2×M×N/(M+N)(M+N-1)≈2×M×N/M+N^2=(2cgg+cgr)(2crr+cgr)/2cgg+cgr+crr^2 , where c gg, c gr, and c rr are the corresponding concentrations of the only green FZD6 dimers, the red and green FZD6 dimers and the only red FZD6 dimers. […] From the experiments, we determine the concentrations for c gg, c gr and c rr and compare the concentrations c gr with the c′gr for each cell to get an estimation of how close the model is to experimental data: cgr/c′gr=2cgr×(cgg+cgr+crr)/((2cgg+cgr)(2crr+cgr)) Analysis of the dynamic FCCS measurements of WNT-dependent dissociation and re-association of FZD6: Auto-correlation and cross-correlation curves were analyzed as described above and the amplitudes G g(0)−1, G r(0)−1, and G cc(0)−1 from each of the more than 300 measurements of 10 s duration were estimated by fitting to theoretical models. […]
With the settings described above for detection of emission, the crosstalk from the GFP channel to the mCherry channel, defined as the intensity detected in the mCherry channel divided by the intensity detected in the GFP channel, I r/I g, for a cell expressing only FZD-GFP, was 0.051 or 5.1 %. […]

Setting [3] is: representative cell, G cc normalized to green auto-correlation amplitude, WNT-5A.

B1: WNT-5A: recombinant carrier-free WNT-5A (R&D Systems), agonist for FZDs (protein, UniProt P41221 62-380, looked up)
Protein Wnt-5a: IIGAQPLCSQLAGLSQGQKKLCHLYQDHMQYIGEGAKTGIKECQYQFRHRRWNCSTVDNTSVFGRVMQIGSRETAFTYAVSAAGVVNAMSRACREGELSTCGCSRAARPKDLPRDWLWGGCGDNIDYGYRFAKEFVDARERERIHAKGSYESARILMNLHNNEAGRRTVYNLADVACKCHGVSGSCSLKTCWLQLADFRKVGDALKEKYDSAAAMRLNSRGKLVQVNSRFNSPTTQDLVYIDPSPDYCVRNESTGSLGTQGRLCNKTSEGMDGCELMCCGRGYDQFKTVQTERCHCKFHWCCYVKCKKCTEIVDQFVCK
Consider B1, for which the “internalization of SNAP-FZD6” value in assay [1] is “minimal internalization of SNAP-FZD6 was observed and this was not enhanced by the addition of recombinant WNT-5A”. For the same molecule, in assay [2] (WNT-5A 300 ng ml^−1), the “FZD6–FZD6 interaction upon stimulation (FCCS)” value is on record as “a transient decrease in FZD6–FZD6 interaction”. Also, in assay [2] (setting [3]), the “red molecules also green at maximal dimer dissociation” value came out at 6% and the “red molecules also green upon dimer re-association” value amounted to 21%.
